According to patent US20120231013A1 (Amgen, published 2012):
Values joined by “and” are separate entries in the source; they are usually repeats but may differ in a detail not shown here. Identical values can stand only once.

Experiments:
recombinant human TIMP-3 [1] = molecular target: T1, recombinant human TIMP-3 (human, UniProt P35625 24-211); assay: indirect ELISA, huTIMP-3 captured by anti-TIMP-3 clone 277128
T1 construct: also called HuTIMP-3; huTIMP-3
T1 sequence (looked up): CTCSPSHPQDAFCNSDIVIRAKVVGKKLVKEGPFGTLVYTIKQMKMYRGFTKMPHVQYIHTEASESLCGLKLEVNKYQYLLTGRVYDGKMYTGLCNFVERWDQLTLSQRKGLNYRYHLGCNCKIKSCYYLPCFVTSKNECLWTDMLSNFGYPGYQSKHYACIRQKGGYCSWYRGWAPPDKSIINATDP
Procedure: (§1) Then 100 microL/well of the diluted LRP-1 peptide titration is added to the TIMP-3 coated plate and allowed to bind for 1.5 hour at room temperature with shaking. After incubation, the plate is washed three times with 200 microL/well of wash buffer 2 (TBS [pH 7.5], 1 mM CaCl₂, 0.02% Tween-20). […] The assay plate is then washed three times with 200 microL/well with wash buffer 2. The plate is developed by adding 100 microL/well of 1:1 mixture of TMB and H₂O₂ (Pierce, Fisher Thermo Scientific, Rockford Il.), the reaction is stopped by adding 100 microL/well 2NH₂SO₄ (VWR), and read on a SpectraMax microplate reader (Molecular Devices, Sunnyvale, Calif.) at OD450 nm using SOFTmax Pro software version 3.1.2. Data is analyzed using GraphPad Prism 4.01 software. Binding of LRP-1 peptides to TIMP-3 is expressed as binding EC50.
After incubation, the plate contents are discarded and 250 microL/well of blocking buffer (1% BSA, TBS [pH 7.5], 1 mM CaCl₂) is added to the plate which is incubated with shaking for 1 hour at room temperature. The plate is then washed three times with 200 microL/well with wash buffer 1 (TBS [pH 7.5], 1 mM CaCl₂) followed by the addition of 100 microL of 20 nM recombinant human TIMP-3. The plate is incubated at room temperature for 1 hour. The LRP-1 peptides are titrated as described previously, and 100 microL/well of the diluted LRP-1 peptide titration is added to the TIMP-3 coated plate and allowed to bind for 1.5 hour at room temperature with shaking. After incubation, the plate is washed and the ELISA performed substantially as described previously for the direct binding ELISA.

recombinant mouse TIMP-3 = molecular target: T2, recombinant mouse TIMP-3 (mouse, UniProt P39876 24-211); assay: direct ELISA, coated muTIMP-3
T2 construct: also called MuTIMP-3
T2 sequence (looked up): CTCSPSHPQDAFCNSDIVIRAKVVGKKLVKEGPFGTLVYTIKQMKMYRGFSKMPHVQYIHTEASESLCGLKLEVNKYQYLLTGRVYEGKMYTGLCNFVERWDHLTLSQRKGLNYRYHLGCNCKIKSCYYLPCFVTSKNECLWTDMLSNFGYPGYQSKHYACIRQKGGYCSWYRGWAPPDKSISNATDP
Procedure: as §1, with “After incubation, the coating solution is removed and replaced with 250 microL/well of blocking buffer (1% BSA, TBS [pH 7.5], 1 mM CaCl₂) and incubated with shaking for 1 hour at room temperature. The plates are then washed three times with 200 microL/well with wash buffer 1 (TBS [pH 7.5], 1 mM CaCl₂). The LRP-1 peptides are titrated in assay buffer (0.1% BSA, TBS [pH 7.5], 1 mM CaCl₂, 0.02% Tween-20) in a separate polypropylene non-treated round-bottom 96-well plate (BD Falcon™) starting at 1 microM concentration and then diluted serially 4-fold for 8-points, with the last point buffer only. Then” for “Then”

recombinant human TIMP-3 [2] = molecular target: T1, recombinant human TIMP-3; assay: cell-based or functional assay
recombinant human TIMP-3 [3] = molecular target: T1, recombinant human TIMP-3; assay: direct ELISA, coated huTIMP-3
Procedure: as §1, with “After incubation, the coating solution is removed and replaced with 250 microL/well of blocking buffer (1% BSA, TBS [pH 7.5], 1 mM CaCl₂) and incubated with shaking for 1 hour at room temperature. The plates are then washed three times with 200 microL/well with wash buffer 1 (TBS [pH 7.5], 1 mM CaCl₂). The LRP-1 peptides are titrated in assay buffer (0.1% BSA, TBS [pH 7.5], 1 mM CaCl₂, 0.02% Tween-20) in a separate polypropylene non-treated round-bottom 96-well plate (BD Falcon™) starting at 1 microM concentration and then diluted serially 4-fold for 8-points, with the last point buffer only. Then” for “Then”

[4] = molecular target: T3, recombinant TIMP-3 (human or mouse; Table 2 does not say which); assay: binding ELISA, Assay 2
T3 construct: The methods say 'human or mouse TIMP-3'

[5] = molecular target: T3, recombinant TIMP-3 (human or mouse; …); assay: AlphaScreen, biotinylated TIMP-3, Assay 1
Procedure: (§2) Peptides were also evaluated by AlphaScreen® (Amplified Luminescent Proximity Homogeneous Assay; PerkinElmer, Waltham, Mass.) a very sensitive non-radioactive homogeneous assay technology that allows the screening of a large range of biological interactions and activities, substantially according to the manufacturer's instructions. Briefly, all dilutions are made in AlphaScreen® Buffer: [40 mM HEPES pH 7.5, 100 mM NaCl, 1 mM CaCl2, 0.1% BSA, 0.05% Tween-20]. The LRP-1 peptides are titrated in a separate polypropylene 96-well plate (Falcon) starting at 4 microM concentration and then diluted serially 3-fold for 12-points, with the last point buffer only. First 2 microL/well of protein titration curve is added to white, small volume, 384-well assay plate (Greiner Bio-One, Stonehouse, UK) in duplicate. Next, 2 microL of biotinylated (AFS, in-house conjmicroGation) recombinant human or mouse TIMP-3, is added at 12 nM (or 3 nM final assay concentration) to the assay plate. Lastly, in subdued light 4 microL of a mixture of streptavidin donor beads, anti-mouse IgG acceptor beads (PerkinElmer) both diluted to 20 microG/mL (10 microG/mL final assay concentration) and 2 nM (1 nM final concentration) rat-anti-HA (clone3F10)-HRP (Roche Diagnostics) is added to the plates. Plates containing 8 microL final assay volme are covered with TopSeal A (to prevent evaporation), spun quickly at 1000 rpm, and incubated overnight (covered with foil to prevent light exposure) before reading on Fusion plate reader (PerkinElmer) using AlphaScreen® parameters (excitation 680 nm and emission 520-620 nm). Data is analyzed using GraphPad Prism 4.01 software. Binding to TIMP-3 is reported as total signal (cps).

[6] = molecular target: T3, recombinant TIMP-3 (human or mouse; …); assay: AlphaScreen, biotinylated TIMP-3, Assay 2
Procedure: as §2

[7] = molecular target: T3, recombinant TIMP-3 (human or mouse; …); assay: binding ELISA, Assay 3
MMP-13 = MMP-13 (UniProt P45452 20-471, limits assumed); assay: cell-based or functional assay

B1: LRP-1 peptide LA23-24 (peptide)
chain: not shown
notes: Tags implied (Ni-NTA, anti-HA detection), not described
EC50 (recombinant human TIMP-3 [1]): 85 nM
EC50 (recombinant mouse TIMP-3): 140 nM
% of the inhibitory activity of TIMP-3 + peptide compared to TIMP-3 alone, 400 nM (recombinant human TIMP-3 [2]): 92%
% of the inhibitory activity of TIMP-3 + peptide compared to TIMP-3 alone, 2000 nM (recombinant human TIMP-3 [2]): 53%
EC50 (recombinant human TIMP-3 [3]): 187 nM
EC50 [4]: ~600 nM
total signal (cps) [5]: 2200 cps
total signal (cps) [6]: 2000 cps

B2: LRP-1 peptide LA25 (peptide)
chain: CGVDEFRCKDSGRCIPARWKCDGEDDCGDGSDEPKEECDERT
notes: as for B1
EC50 [7]: ~1000 nM
EC50 (recombinant human TIMP-3 [1]): 447 nM
% of the inhibitory activity of TIMP-3 + peptide compared to TIMP-3 alone, 16 nM (recombinant human TIMP-3 [2]): 96%
% of the inhibitory activity of TIMP-3 + peptide compared to TIMP-3 alone, 80 nM (recombinant human TIMP-3 [2]): 95%
% of the inhibitory activity of TIMP-3 + peptide compared to TIMP-3 alone, 400 nM (recombinant human TIMP-3 [2]): 94%
% of the inhibitory activity of TIMP-3 + peptide compared to TIMP-3 alone, 2000 nM (recombinant human TIMP-3 [2]): 94%
EC50 (recombinant human TIMP-3 [3]): 742 nM
EC50 [4]: 1220 nM
total signal (cps) [5]: 5000 cps
total signal (cps) [6]: 2000 cps

B3: LRP-1 peptide LA4 (peptide)
chain: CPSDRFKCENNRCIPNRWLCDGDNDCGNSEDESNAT
notes: as for B1
EC50 [7]: ~3000 nM
binding result (recombinant mouse TIMP-3): no binding (tested: titration from 1 microM)
EC50 [4]: 900 nM
total signal (cps) [5]: 2200 cps
total signal (cps) [6]: 2000 cps

B4: LRP-1 peptide LA15 (peptide)
chain: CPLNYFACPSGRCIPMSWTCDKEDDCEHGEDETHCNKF
notes: The end 2733 is inferred from the start of LA16 (2734)
EC50 [7]: ~1500 nM
EC50 (recombinant human TIMP-3 [1]): 378 nM
% of the inhibitory activity of TIMP-3 + peptide compared to TIMP-3 alone, 16 nM (recombinant human TIMP-3 [2]): 104%
% of the inhibitory activity of TIMP-3 + peptide compared to TIMP-3 alone, 80 nM (recombinant human TIMP-3 [2]): 95%
% of the inhibitory activity of TIMP-3 + peptide compared to TIMP-3 alone, 400 nM (recombinant human TIMP-3 [2]): 67%
% of the inhibitory activity of TIMP-3 + peptide compared to TIMP-3 alone, 2000 nM (recombinant human TIMP-3 [2]): 58%
Direct Inhibition of MMP13 (% decrease), 1000 nM (MMP-13): 61%
EC50 (recombinant human TIMP-3 [3]): 901 nM
EC50 [4]: ~5000 nM
total signal (cps) [5]: 2200 cps
total signal (cps) [6]: 2000 cps

B5: LRP-1 peptide LA24-25 (peptide)
chain: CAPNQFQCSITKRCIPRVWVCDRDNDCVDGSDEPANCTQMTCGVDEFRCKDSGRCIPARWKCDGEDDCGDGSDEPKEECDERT
notes: as for B1
EC50 [7]: 436 nM
EC50 (recombinant human TIMP-3 [1]): 32 nM
EC50 (recombinant mouse TIMP-3): 124 nM
% of the inhibitory activity of TIMP-3 + peptide compared to TIMP-3 alone, 16 nM (recombinant human TIMP-3 [2]): 90%
% of the inhibitory activity of TIMP-3 + peptide compared to TIMP-3 alone, 80 nM (recombinant human TIMP-3 [2]): 88%
% of the inhibitory activity of TIMP-3 + peptide compared to TIMP-3 alone, 400 nM (recombinant human TIMP-3 [2]): 87%
% of the inhibitory activity of TIMP-3 + peptide compared to TIMP-3 alone, 2000 nM (recombinant human TIMP-3 [2]): 92%
EC50 (recombinant human TIMP-3 [3]): 162 nM
EC50 [4]: 211 nM
total signal (cps) [5]: 290000 cps
total signal (cps) [6]: 130000 cps

B6: LRP-1 peptide LA5-6 (peptide)
chain: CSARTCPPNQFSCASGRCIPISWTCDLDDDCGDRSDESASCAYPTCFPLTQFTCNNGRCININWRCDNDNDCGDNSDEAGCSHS
notes: as for B1
EC50 [7]: 512 nM
EC50 (recombinant human TIMP-3 [1]): 78 nM
EC50 (recombinant mouse TIMP-3): 332 nM
% of the inhibitory activity of TIMP-3 + peptide compared to TIMP-3 alone, 16 nM (recombinant human TIMP-3 [2]): 97%
% of the inhibitory activity of TIMP-3 + peptide compared to TIMP-3 alone, 80 nM (recombinant human TIMP-3 [2]): 80%
% of the inhibitory activity of TIMP-3 + peptide compared to TIMP-3 alone, 400 nM (recombinant human TIMP-3 [2]): 72%
% of the inhibitory activity of TIMP-3 + peptide compared to TIMP-3 alone, 2000 nM (recombinant human TIMP-3 [2]): 65%
Direct Inhibition of MMP13 (% decrease), 1000 nM (MMP-13): 16%
EC50 [4]: 400 nM
total signal (cps) [5]: 6000 cps
total signal (cps) [6]: 4000 cps

B7: LRP-1 peptide LA26 (peptide)
chain: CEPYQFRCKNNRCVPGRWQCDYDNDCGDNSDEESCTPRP
notes: as for B1
EC50 (recombinant human TIMP-3 [1]): 179 nM
EC50 (recombinant mouse TIMP-3): 134 nM
% of the inhibitory activity of TIMP-3 + peptide compared to TIMP-3 alone, 16 nM (recombinant human TIMP-3 [2]): 96%
% of the inhibitory activity of TIMP-3 + peptide compared to TIMP-3 alone, 80 nM (recombinant human TIMP-3 [2]): 109%
% of the inhibitory activity of TIMP-3 + peptide compared to TIMP-3 alone, 400 nM (recombinant human TIMP-3 [2]): 112%
% of the inhibitory activity of TIMP-3 + peptide compared to TIMP-3 alone, 2000 nM (recombinant human TIMP-3 [2]): 108%
Direct Inhibition of MMP13 (% decrease), 1000 nM (MMP-13): 1%
EC50 (recombinant human TIMP-3 [3]): 118 nM
EC50 [4]: 300 nM
total signal (cps) [5]: 2200 cps

B8: LRP-1 peptide LA25-26 (peptide)
chain: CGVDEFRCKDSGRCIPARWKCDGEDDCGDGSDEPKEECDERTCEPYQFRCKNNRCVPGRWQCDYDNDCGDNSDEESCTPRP
EC50 (recombinant human TIMP-3 [1]): 41 nM and 20 nM
EC50 (recombinant mouse TIMP-3): 117 nM and 80 nM
% of the inhibitory activity of TIMP-3 + peptide compared to TIMP-3 alone, 16 nM (recombinant human TIMP-3 [2]): 97%
% of the inhibitory activity of TIMP-3 + peptide compared to TIMP-3 alone, 80 nM (recombinant human TIMP-3 [2]): 101%
% of the inhibitory activity of TIMP-3 + peptide compared to TIMP-3 alone, 400 nM (recombinant human TIMP-3 [2]): 105%
% of the inhibitory activity of TIMP-3 + peptide compared to TIMP-3 alone, 2000 nM (recombinant human TIMP-3 [2]): 101%
EC50 (recombinant human TIMP-3 [3]): 167 nM and 99 nM
EC50 [4]: 673 nM
total signal (cps) [5]: 20000 cps
total signal (cps) [6]: 5000 cps

B9: LRP-1 peptide LA8-10 (peptide)
chain: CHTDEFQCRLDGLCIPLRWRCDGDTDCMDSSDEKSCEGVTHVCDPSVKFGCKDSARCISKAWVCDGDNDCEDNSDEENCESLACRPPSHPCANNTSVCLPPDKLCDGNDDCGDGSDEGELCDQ
notes: The end 1184 is inferred from the end of Cluster II; Tags implied, not described
EC50 [7]: 657 nM and 1040 nM
EC50 (recombinant human TIMP-3 [1]): 219 nM
EC50 (recombinant mouse TIMP-3): 696 nM
% of the inhibitory activity of TIMP-3 + peptide compared to TIMP-3 alone, 16 nM (recombinant human TIMP-3 [2]): 94%
% of the inhibitory activity of TIMP-3 + peptide compared to TIMP-3 alone, 80 nM (recombinant human TIMP-3 [2]): 89%
% of the inhibitory activity of TIMP-3 + peptide compared to TIMP-3 alone, 400 nM (recombinant human TIMP-3 [2]): 84%
% of the inhibitory activity of TIMP-3 + peptide compared to TIMP-3 alone, 2000 nM (recombinant human TIMP-3 [2]): 93%
Direct Inhibition of MMP13 (% decrease), 1000 nM (MMP-13): -6%
total signal (cps) [5]: 110000 cps
total signal (cps) [6]: 100000 cps
